This passage reports Kd results from paper PMC8477557 (2021).

This experiment concerns the target αCD123. As to the kind of experiment: SPR. For orientation: In SPR one partner is held on a chip, and binding of the other changes the refractive index at the surface.

B1: CD123 extracellular domain (domain or fragment)
chain: TKEDPNPPITNLRMKAKAQQLTWDLNRNVTDIECVKDADYSMPAVNNSYCQFGAISLCEVTNYTVRVANPPFSTWILFPENSGKPWAGAENLTCWIHDVDFLSCSWAVGPGAPADVQYDLYLNVANRRQQYECLHYKTDAQGTRIGCRFDDISRLSSGSQSSHILVRGRSAAFGIPCTDKFVVFSQIEILTPPNMTAKCNKTHSFMHWKMRSHFNRKFRYELQIQKRMQPVITEQVRDRTSFQLLNPGTYTVQIRARERVYEFLSAWSTPQRFECDQEEGANTRAWR
Broadly, the Kd is the constant that tells how readily two partners part at equilibrium. A higher Kd goes with weaker binding. The molecule B1 showed a Kd of 1.2 nM.
